Data set [1] relates to EJM myeloma cells. In words: Subcutaneous myeloma xenograft, EJM. Type of data set: in vivo, scid mice. Conditions: 2 mg/kg twice weekly i.p.; vs control IgG1. Here is the method:
(§1) Antibody treatment with 2 mg/kg BI-505 or control IgG1 was started at Day 1 and was continued on a twice-weekly intraperitoneal dosing regimen. Mice were sacrificed when tumor sizes reached the ethical limit.

In data set [2] the test system is NCI-H929 myeloma cells. Put plainly: Subcutaneous myeloma xenograft, NCI-H929. Type of data set: in vivo, scid mice. To be noted: 2 mg/kg twice weekly i.p.; vs control IgG1. Here is the method: as §1
Data set [3] concerns RPMI-8226 myeloma cells. In words: Disseminated RPMI-8226 model of multiple myeloma. Type of data set: in vivo, SCID mice. Conditions: 2 mg/kg i.v. twice weekly for 8 weeks, vs control mAb and standard of care drugs. Here is the method: ARH-77 cells or RPMI-8226 were injected intraveniously into the SCID mice. (FIG. 6A) ARH-77 model. Animals received intravenous injections with antibody at 2 mg/kg or bortezomib (Velcade) at 0.5 mg/kg on Days 7, 10, 13, and 16 (as indicated by arrows in the graph). (FIG. 6B) RPMI-8226-model. BI-505 or control mAb was administered i.v at 2 mg/kg, twice weekly for 8 weeks, bortezomid, at 1 mg/kg, once weekly for 8 weeks, lenalidomide p.o with 2 mg/kg for 2 cycles consisting of 5 days of treatment and 2 days of wash out, melphalan i.v at 3 mg/kg, once weekly for 8 weeks, and dexamethasone (DXH) at 6 mg/kg/inj 3 times/week for 2 consecutive weeks. There were 6-10 mice per treatment group. Statistical significance was calculated using Log-rank Graphpad Prism software and determined at ***p<0.001. (FIG. 6C) To study the ICAM-1 level on human cells, the cells from different organs were stained and gated for CD38+/mCD45−/BI-505+. Left panel indicates the percentage of BI-505 positive cells in CD38+/mCD45 population and right panel the mean fluorescent intensity of the positive cells.
The anti-myeloma effect of BI-505 was examined in a disseminated model of multiple myeloma. The early and advanced disseminated model of multiple myeloma was performed at Oncodesign, Dijon, France. […]

Data set [4] deals with HUVEC, HMVEC or peripheral blood B cells. Put plainly: ADCC of normal ICAM-1 expressing cells. Type of data set: cell-based. From the text:
Buffy coats from human donors (ordered through Blodcentralen, Lund) were used to isolate peripheral blood mononuclear cells (PBMCs), and subsequently NK cells. Briefly, peripheral blood components were separated using Ficoll Paque PLUS (Amersham Biosciences, Sweden) in LeucoSep tubes (Greiner Bio-One). The PBMC fraction was removed and thoroughly washed in ice-cold DPBS (Invitrogen), before magnetic labeling and separation of the NK cell population using positive or negative NK cell isolation kits and MACS LS columns (Miltenyi Biotec). The purity of the obtained NK cell fractions was analyzed using flow cytometry, after staining with α-CD56 antibodies (BD Biosciences). Target cells were harvested, and incubated in medium with or without the respective antibodies (2 μg/mL) for 60 min on ice. Cells were thereafter washed and resuspended in cold medium before dispension into FACS tubes. Subsequently, isolated NK cells were diluted in ADCC medium and dispensed together with the respective antibody-coated target cells at varying effector/target cell ratios (40:1, 20:1, 5:1 and 1:1). All experiments were performed in triplicates. After completed incubation ToPo-Pro-3 dye and counting beads (Invitrogen) were added and cells were analyzed for membrane permeabilization using flow cytometry.

Data set [5] has as its system peripheral blood B cells. Put plainly: PCD in normal B cells. The class given is cell-based. Conditions: resting or activated cells. Here is the method: Target cells were seeded in 96-well culture plates at a density of 2×10^6 cells/mL culture medium. Titrated concentrations of IgG1 B11 or different negative and positive control antibodies were added to the cells, in the absence or presence of anti-human Fab fragment (Jackson ImmunoResearch) for cross-linking. The cells were then incubated for 16 hours at 37° C. in a humidified atmosphere of 5% CO2. The cells were harvested and stained for Annexin V-488/Propidium Iodide (Invitrogen, Sweden) and analysed using flow cytometer (FACS Calibur, BD Bioscience).

Data set [6] deals with ARH-77 cells. Put plainly: Subcutaneous scid/ARH-77 xenograft, prophylactic model.
Experimental: Tumor cells were injected subcutaneously into the left flank of SCID mice. Mice received twice-weekly intraperitoneal injections with BI-505, control antibody or rituximab at doses of 20, 2 and/or 0.2 mg/kg commencing one day after tumor cell inoculation. There were 8 to 10 animals per treatment group. […] Statistical significance was calculated relative to control antibody treatment using Kruskal-Wallis Test (Nonparametric ANOVA) with Dunn's Multiple Comparisons Test (tumor volume) or the log-rank test (mouse survival) using Graphpad Instat or Prism software, respectively. Statistical significance was considered for *p<0.05, **p<0.01, and ***p<0.001.
Tumor cells were injected subcutaneously into the left flank of SCID mice. Mice received twice-weekly intraperitoneal injections with BI-505 at doses of 0.02-20 mg/kg commencing day after tumor cell inoculation. There were 8-10 animals per treatment group. […] Statistical significance was calculated relative to control antibody treatment using Kruskal-Wallis Test (Nonparametric ANOVA) with Dunn's Multiple Comparisons Test (tumor volume) or the log-rank test (mouse survival) using Graphpad Instat or Prism software, respectively. Statistical significance was considered for *p<0.05, **p<0.01, and ***p<0.001. Graphs illustrate representative experiments out of several performed.
(FIG. 7A) ARH-77 cells were injected subcutaneously into the left flank of SCID mice (n=8 per group). Mice were treated with the different BI-505 isotypes twice weekly. […] Statistical significance was calculated relative to control antibody treatment using Kruskal-Wallis Test (Nonparametric ANOVA) with Dunn's Multiple Comparisons Test. Statistical significance was considered for *p<0.05, **p<0.01, and ***p<0.001.
Mice were anaesthetized with a mixture of sevofluran and oxygen prior to myeloma cell inoculation and 1-5×10^6 myeloma cells were then subcutaneously injected in a volume of 100 μl into the left flank.
Data set [7] concerns PBMC. Put plainly: PBMC / T cell proliferation. Type of data set: cell-based.
For data set [8], the system named is Daudi cells. Put plainly: Subcutaneous Daudi non-Hodgkin lymphoma xenograft. Type of data set: in vivo, scid mice. To be noted: twice weekly i.p. from day 1; compared to rituximab.

“Also recorded” adds a separate entry of the source.

B1: IgG B11: fully human ICAM-1 antibody isolated from the n-CoDeR library; VH/VL sequences in FIG. 15 (SEQ ID NOs 8, 10) (antibody, V domains shown)
VH: EVQLLESGGGLVQPGGSLRLSCAASGFTFSNAWMSWVRQAPGKGLEWVAFIWYDGSNKYYADSVKGRFTISRDNSKNTLYLQMNSLRAEDTAVYYCARYSGWYFDYWGQGTLVTVSS
VL: QSVLTQPPSASGTPGQRVTISCTGSSSNIGAGYDVHWYQQLPGTAPKLLIYDNNNRPSGVPDRFSGSKSGTSASLAISGLRSEDEADYYCQSYDSSLSAWLFGGGTKLTVLG
modifications: B11 VH region; B11 VL region
As for B1, the “reduction of myeloma tumor growth” value in data set [1] was 98%; in data set [2], 99%. Besides, the survival result in data set [3] is listed as “significantly enhanced survival”; in data set [3] (listed as BI-505), “significantly enhances survival; also recorded: highly improved survival”; in data set [6] (IgG B11 at 2 mg/kg, ten-fold lower dose than rituximab), “complete survival”. In addition, in data set [4], the “ADCC of normal cells” value is given as “did not confer ADCC”. The “PCD induction in normal B cells” value in data set [5] is “did not, however, induce PCD”. The tumor growth result in data set [6] (20 mg/kg twice weekly i.p., commencing one day after tumor cell inoculation) was “completely prevent tumor-growth”; in data set [8] it was “prevented tumor growth”. In addition, the anti-tumor activity entry in data set [6] (dose of 0.2 mg/kg, dose titration) was “near maximal”. Further, the “dose at which anti-tumor activity peaked” value in data set [6] (dose titration 0.02-20 mg/kg twice weekly i.p.) was 2 mg/kg. Also, the cell proliferation entry is reported as “did not induce cell proliferation” in data set [7] (added in solution, resting or lipopolysaccharide pre-stimulated PBMCs) and “did not induce cell proliferation” in data set [7] (immobilised by either protocol, or in solution with or without cross-linking reagent). For the same molecule, in data set [8], the “survival of tumor bearing mice” value is “prolonged survival”.
